# Patent US8304206
# Several values for one entry are separate records, joined by “and”; a condition that tells them apart may be missing. Equal values may be shown once.
# T1: SIRT1 Acetylated Peptide Substrate Ac-EE-K(biotin)-GQSTSSHSK(Ac)NleSTEG-K(5TMR)-EE-NH2 (SEQ ID NO: 34)
# T1 chain: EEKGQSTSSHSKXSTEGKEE
# B1: SIRT1 protein (human SIRT1 enzyme), expressed in E. coli BL21(DE3) as an N-terminal His-tag fusion protein (protein)
# chain: MADEAALALQPGGSPSAAGADREAASSPAGEPLRKRPRRDGPGLERSPGEPGGAAPEREVPAAARGCPGAAAAALWREAEAEAAAAGGEQEAQATAAAGEGDNGPGLQGPSREPPLADNLYDEDDDDEGEEEEEAAAAAIGYRDNLLFGDEIITNGFHSCESDEEDRASHASSSDWTPRPRIGPYTFVQQHLMIGTDPRTILKDLLPETIPPPELDDMTLWQIVINILSEPPKRKKRKDINTIEDAVKLLQECKKIIVLTGAGVSVSCGIPDFRSRDGIYARLAVDFPDLPDPQAMFDIEYFRKDPRPFFKFAKEIYPGQFQPSLCHKFIALSDKEGKLLRNYTQNIDTLEQVAGIQRIIQCHGSFATASCLICKYKVDCEAVRGDIFNQVVPRCPRCPADEPLAIMKPEIVFFGENLPEQFHRAMKYDKDEVDLLIVIGSSLKVRPVALIPSSIPHEVPQILINREPLPHLHFDVELLGDCDVIINELCHRLGGEYAKLCCNPVKLSEITEKPPRTQKELAYLSELPPTPLHVSEDSSSPERTSPPDSSVIVTLLDQAAKSNDDLDVSESKGCMEEKPQEVQTSRNVESIAEQMENPDLKNVGSSTGEKNERTSVAGTVRKCWPNRVAKEQISRRLDGNQYLFLPPNRYIFHGAEVYSDSEDDVLSSSSCGSNSDSGTCQSPSLEEPMEDESEIEEFYNGLEDEPDVPERAGGAGFGTDGDDQEAINEAISVKQEVTDMNYPSNKS
# Molecular target: T1, SIRT1 Acetylated Peptide Substrate …
protein,measurement,value
B1,"Km (mass spectrometry deacetylase assay, replicate plate)",11.2 µM and 11.9 µM
same,"Peptide Km (mean of 2 replicate plates, mass spectrometry assay)",11.6 µM
same,"deacetylation of the peptide (conversion to deacetylated product, mass spectrometry)",SIRT1 deacetylation activity is dependent on both enzyme concentration and incubation time. Concentrations of enzyme between 5-20 nM result in product formation well above background.
same,decrease of Km for peptide substrate at 1.2 µM resveratrol (against DMSO vehicle),2%
same,decrease of Km for peptide substrate at 3.7 µM resveratrol (against DMSO vehicle),14%
same,decrease of Km for peptide substrate at 11 µM resveratrol (against DMSO vehicle),14%
same,decrease of Km for peptide substrate at 33 µM resveratrol (against DMSO vehicle),32%
same,decrease of Km for peptide substrate at 100 µM resveratrol (against DMSO vehicle),46%
